{
  "source": "patent US10654918B2",
  "about": "“Inflammatory disease diagnosis and methods of treatment using down-regulators of lipopolysaccharide-responsive beige-like anchor” (University of South Florida, priority 2013, dated 2020)",
  "key": {"Raji cells": {"tested_on": "Raji cells", "experiment": "Cell surface CVID and TLR4 receptors on LRBA WT and LRBA KD Raji cells (flow cytometry)", "format": "cell-based, human", "source_text": "LRBA is an important vesicle trafficking regulator (Wang, et al., Identification of a novel lipopolysaccharide-inducible gene with key features of both A kinase anchor proteins and chs1/beige proteins. 2001. J Immunol 166: 4586-4595; Cullinane, et al., The BEACH Is Hot: A LYST of Emerging Roles for BEACH-Domain Containing Proteins in Human Disease. 2013. Traffic) and may function as a master regulator of multiple CVID receptors. To test this, LRBA WT and LRBA KD Raji cells were stimulated with LPS, and the cell surface levels of CVID receptors and TLR4 were analyzed by flow cytometry. BD FACSelect Multicolor Panel Designer was used to search antibodies and build up the panel for multiple color cytometry for LSRII FACS machine. Fluorophores directly conjugated antibodies against cell surface CVID proteins were used: CD19-PerCP-Cy5.5, CD2O-PE-Cy7, CD21-V450, BAFFR-PE, TACI-APC, and CD81-APC-H7. Two panels were used when use live/dead discrimination with DAPI […] or 7AAD (overlap with V450). The standard staining procedures were followed and 20,000 to half million cells were acquired. Data acquisition was performed using FACS LSRII flow cytometers and analyzed using FACSDiva version 6.1.2."}, "A549 cells": {"tested_on": "A549 cells", "experiment": "Western blot of A549 and A549 pLAsiGFP cells treated with LPS", "format": "cell-based, human", "conditions": "for TLR4 levels (Western blot): vs untransfected A549 cells", "method": "(§1) FIGS. 4A-B are a blot and graph showing knockdown of LRBA increases the TNFα levels in A549 cells (adenocarcinomic human alveolar basal epithelial cells). A549 cells and A549 pLAsiGFP cells (stably transfected with shRNA plasmid against LRBA) were treated with LPS (1 μg/ml). The TNFα concentrations were detected by Western blot. Cells were cultured in 6-well plates and stimulated with LPS (1 μg/ml) for different time as shown, then lysed with RIPA buffer. Western blots were carried out. TNFα antibody (sc-1351. Santa Cruz Biotechnology, Santa Cruz, USA) was used at 1:500 ratio and incubated at 4° C. overnight. BioRad ChemiDoc XRS and Quantity One software were used to acquire gel image and measure band relative intensity. (A) Western blot. 1. A549 No LPS, 2. A549 LPS 30 min, 3. A549 LPS 1 hr, 4. A549 LPS 2 h, 5. A549 LPS 4 h, 6. A549 LPS 24 h, 7. A549 pLAsiGFP LPS 2 h, 8. A549 pLAsiGFP LPS 4 h, 9. A549 pLAsiGFP LPS 24 h. (B) Band intensity quantification from A.\nas §1, with “FIG. 17(A)-(B)” for “FIGS. 4A-B”, “series of graphs” for “blot and graph”, “TLR4” for “TNFα”, “cells.” for “cells (adenocarcinomic human alveolar basal epithelial cells).”\nFIGS. 31(A) and (B) are a blot and graph showing knockdown of LRBA decreases the total NFκB levels in A549 cells. A549 LIRII cells (stably transfected with pLRBA-VHS) and A549 pLAsiGFP cells (stably transfected with shRNA plasmid against LRBA) were treated with LPS (1 μg/ml). The NFκB concentrations were detected by Western blot. Cells were cultured in 6-well plates and stimulated with LPS (1 μg/ml) for different time as shown, then lysed with RIPA buffer. Western blots were carried out. NF-κB2 p100/p52 Antibody #4882 (Cell Signaling Technology, Danvers, Mass., USA) was used at 1:500 ratio and incubated at 4° C. overnight. BioRad ChemiDoc XRS and Quantity One software were used to acquire gel image and measure band relative intensity. A. Western blot. B. Band intensity quantification from A."}, "[1]": {"conditions": "Raji cell surface, LPS stimulated, Knockdown"}},
  "data": [
    {"molecule": "LRBA shRNA: shRNA plasmid against LRBA; targeted LRBA sequence SEQ ID No. 15 GGGATATTGTAGAAACTGTCTTT (nucleic acid) sense: GGGATATTGTAGAAACTGTCTTTTTCAAGAGAAAAGACAGTTTCTACAATATCCCTTTTTT antisense: CCCTATAACATCTTTGACAGAAAAAGTTCTCTTTTCTGTCAAAGATGTTATAGGGAAAAAA", "values": [
      {"measurement": "BAFFR Median Intensity", "setting": "Raji cells; [1]", "value": "4198.00 ± 496.75 arbitrary fluorescence intensity units"},
      {"measurement": "BAFFR Percentage", "setting": "Raji cells; [1]", "value": "90.83 ± 0.93", "unit": "%"},
      {"measurement": "CD19 Median Intensity", "setting": "Raji cells; [1]", "value": "5830.17 ± 159.95 arbitrary fluorescence intensity units"},
      {"measurement": "CD19 Percentage", "setting": "Raji cells; [1]", "value": "98.57 ± 0.28", "unit": "%"},
      {"measurement": "CD20 Median Intensity", "setting": "Raji cells; [1]", "value": "29541.25 ± 332.06 arbitrary fluorescence intensity units"},
      {"measurement": "CD20 Percentage", "setting": "Raji cells; [1]", "value": "99.18 ± 0.04", "unit": "%"},
      {"measurement": "CD21 Median Intensity", "setting": "Raji cells; [1]", "value": "1659.50 ± 72.48 arbitrary fluorescence intensity units"},
      {"measurement": "CD21 Percentage", "setting": "Raji cells; [1]", "value": "55.08 ± 5.00", "unit": "%"},
      {"measurement": "TACI Median Intensity", "setting": "Raji cells; [1]", "value": "1813.50 ± 412.89 arbitrary fluorescence intensity units"},
      {"measurement": "TACI Percentage", "setting": "Raji cells; [1]", "value": "7.38 ± 1.49", "unit": "%"},
      {"measurement": "TLR4 Median Intensity", "setting": "Raji cells; [1]", "value": "11204.60 ± 2171.10 arbitrary fluorescence intensity units"},
      {"measurement": "TLR4 Percentage", "setting": "Raji cells; [1]", "value": "31.27 ± 11.42", "unit": "%"},
      {"measurement": "BAFFR Median Intensity fold", "setting": "Raji cells; Wild type vs Knockdown", "value": "0.81↑"},
      {"measurement": "BAFFR Percentage fold", "setting": "Raji cells; Wild type vs Knockdown", "value": "0.96↑"},
      {"measurement": "CD19 Median Intensity fold", "setting": "Raji cells; Wild type vs Knockdown", "value": "1.23↓"},
      {"measurement": "CD19 Percentage fold", "setting": "Raji cells; Wild type vs Knockdown", "value": 1.00},
      {"measurement": "CD20 Median Intensity fold", "setting": "Raji cells; Wild type vs Knockdown", "value": "1.21↓"},
      {"measurement": "CD20 Percentage fold", "setting": "Raji cells; Wild type vs Knockdown", "value": 1.00},
      {"measurement": "CD21 Median Intensity fold", "setting": "Raji cells; Wild type vs Knockdown", "value": "0.96↑"},
      {"measurement": "CD21 Percentage fold", "setting": "Raji cells; Wild type vs Knockdown", "value": "0.49↑"},
      {"measurement": "TACI Median Intensity fold", "setting": "Raji cells; Wild type vs Knockdown", "value": "1.33↓"},
      {"measurement": "TACI Percentage fold", "setting": "Raji cells; Wild type vs Knockdown", "value": "4.07↓"},
      {"measurement": "TLR4 Median Intensity fold", "setting": "Raji cells; Wild type vs Knockdown", "value": 1.04},
      {"measurement": "TLR4 Percentage fold", "setting": "Raji cells; Wild type vs Knockdown", "value": "1.82↓"},
      {"measurement": "TLR4 levels (Western blot)", "setting": "A549 cells; 2 h and 4 h after LPS stimulation (1 μg/ml)", "value": "increases"},
      {"measurement": "TLR4 levels (Western blot)", "setting": "A549 cells; 24 h after LPS", "value": "no difference"},
      {"measurement": "total NFκB levels (Western blot)", "setting": "A549 cells; LPS 1 μg/ml, A549 pLAsiGFP cells", "value": "decreases"},
      {"measurement": "TNFα levels (Western blot)", "setting": "A549 cells; LPS 1 μg/ml, A549 pLAsiGFP vs A549", "value": "increases"}
    ]}
  ]
}
